Results as given in the Human Domainome abundance scans (Beltran et al. 2025).
± gives the uncertainty stated by the source.

B1: Intersectin-2, residues 1129 to 1183; numbered along this chain, Q9NZM3 (parent)
chain: VCQVIAMYDYAANNEDELSFSKGQLINVMNKDDPDWWQGEINGVTGLFPSNYVKM
B2: Zinc finger homeobox protein 3, residues 2147 to 2202; numbered along this chain, Q15911 (parent)
chain: RPRTRITDDQLRVLRQYFDINNSPSEEQIKEMADKSGLPQKVIKHWFRNTLFKERQ

Variants of: B1
Test: abundance fitness (aPCA) (normalised: wild type 0, dead -1); higher = more abundant; growth selection in yeast, the domain comes from the species named
Conditions: Homo sapiens
Variant V28Q has an abundance fitness of -1.04 ± 0.24.
For W36H, the abundance fitness was -0.054 ± 0.047.
Variant I5M has an abundance fitness of -0.144 ± 0.038.
S21G gave an abundance fitness of -0.039 ± 0.031.
Work on S19W yielded an abundance fitness of -0.313 ± 0.044.
For F20L, the abundance fitness was -0.079 ± 0.036.
With W36L the abundance fitness was -0.029 ± 0.03.
With D35I the abundance fitness was 0.03 ± 0.061.
In the case of K31I, the abundance fitness is reported as 0.029 ± 0.058.
Work on D9R yielded an abundance fitness of -0.131 ± 0.029.
With K22Y the abundance fitness was -0.172 ± 0.064.
In the case of N42R, the abundance fitness is reported as -0.054 ± 0.036.
For P34Q, the abundance fitness was 0.029 ± 0.063.
For V44N, the abundance fitness was -0.049 ± 0.046.
Variant C2Y has an abundance fitness of 0.022 ± 0.039.
In the case of L18F, the abundance fitness is reported as -0.2 ± 0.057.
For M7V, the abundance fitness was -0.065 ± 0.045.
Work on I41M yielded an abundance fitness of -0.032 ± 0.049.
Variant Q24F has an abundance fitness of -0.015 ± 0.066.
Variant W36K has an abundance fitness of 0.045 ± 0.054.
M29W gave an abundance fitness of -0.053 ± 0.032.
With D16Q the abundance fitness was -0.044 ± 0.039.
N13R gave an abundance fitness of 0.038 ± 0.047.
In the case of V44M, the abundance fitness is reported as -0.169 ± 0.061.
In the case of E40D, the abundance fitness is reported as -0.045 ± 0.046.
Variant N30G has an abundance fitness of -0.04 ± 0.045.
Q3N showed an abundance fitness of -0.169 ± 0.064.
With S19F the abundance fitness was -0.256 ± 0.056.
D9V showed an abundance fitness of -0.38 ± 0.04.
Work on Q38R yielded an abundance fitness of -0.029 ± 0.031.
With S21K the abundance fitness was 0.002 ± 0.056.
With V1C the abundance fitness was -0.307 ± 0.2.
Work on Q38W yielded an abundance fitness of -0.276 ± 0.068.
With G43S the abundance fitness was -0.024 ± 0.033.
L18D gave an abundance fitness of -1.04 ± 0.21.
A6C gave an abundance fitness of -0.154 ± 0.036.
A6R showed an abundance fitness of -0.883 ± 0.056.
With Y10K the abundance fitness was -0.144 ± 0.04.
F48Y showed an abundance fitness of -0.898 ± 0.18.
In the case of D16M, the abundance fitness is reported as -0.066 ± 0.049.
For V4S, the abundance fitness was -0.064 ± 0.029.
N14Y gave an abundance fitness of -0.048 ± 0.065.
A12D gave an abundance fitness of -0.503 ± 0.12.
In the case of G23A, the abundance fitness is reported as -0.161 ± 0.041.
Variant C2T has an abundance fitness of -0.126 ± 0.051.
With W36A the abundance fitness was -0.092 ± 0.048.
Work on N27H yielded an abundance fitness of -0.089 ± 0.053.
In the case of D32N, the abundance fitness is reported as 0.021 ± 0.047.
Q24L gave an abundance fitness of -0.199 ± 0.037.
Work on M29D yielded an abundance fitness of -0.077 ± 0.056.
With T45S the abundance fitness was -0.003 ± 0.041.
Variant D9H has an abundance fitness of -0.025 ± 0.059.
M7E gave an abundance fitness of -0.057 ± 0.053.
For K22F, the abundance fitness was -0.164 ± 0.036.
Work on F48S yielded an abundance fitness of -0.775 ± 0.049.
For A6L, the abundance fitness was -1.02 ± 0.073.
Variant S19L has an abundance fitness of -0.615 ± 0.036.
N13C gave an abundance fitness of -0.047 ± 0.056.
Work on V53W yielded an abundance fitness of -1.11 ± 0.23.
P49V gave an abundance fitness of -0.782 ± 0.059.
With V28G the abundance fitness was -0.937 ± 0.058.
M7G showed an abundance fitness of -0.081 ± 0.028.
With Q24M the abundance fitness was -0.051 ± 0.033.
N51F gave an abundance fitness of -0.141 ± 0.064.
Variant A11F has an abundance fitness of -0.055 ± 0.037.
Variant Y52K has an abundance fitness of 0.082 ± 0.051.
In the case of N30D, the abundance fitness is reported as -0.087 ± 0.052.
S21V gave an abundance fitness of -0.032 ± 0.037.
I41N gave an abundance fitness of -0.159 ± 0.068.
L25N gave an abundance fitness of -0.054 ± 0.068.
With N14E the abundance fitness was -0.044 ± 0.036.
Variant Q24K has an abundance fitness of -0.118 ± 0.045.
S50C gave an abundance fitness of -0.139 ± 0.055.
In the case of G46F, the abundance fitness is reported as -0.864 ± 0.27.
Work on L18H yielded an abundance fitness of -0.512 ± 0.076.
F20Y showed an abundance fitness of -0.497 ± 0.062.
For K54P, the abundance fitness was -0.507 ± 0.076.
Work on E17W yielded an abundance fitness of -0.322 ± 0.054.
For I26R, the abundance fitness was -0.951 ± 0.05.
L47I gave an abundance fitness of -0.183 ± 0.067.
For D35K, the abundance fitness was -0.071 ± 0.062.
Y8G showed an abundance fitness of -0.063 ± 0.038.
For L18N, the abundance fitness was -0.783 ± 0.18.
D9G gave an abundance fitness of -0.061 ± 0.03.
Work on I26G yielded an abundance fitness of -0.821 ± 0.044.
For E40P, the abundance fitness was -0.963 ± 0.14.
In the case of V44P, the abundance fitness is reported as -0.438 ± 0.054.
P49H showed an abundance fitness of -0.1 ± 0.082.
M7Y gave an abundance fitness of -0.036 ± 0.052.
In the case of I41E, the abundance fitness is reported as -0.478 ± 0.07.
Work on A11W yielded an abundance fitness of -0.117 ± 0.049.
In the case of P49F, the abundance fitness is reported as -0.358 ± 0.032.
With A6N the abundance fitness was -0.928 ± 0.14.
D33P showed an abundance fitness of -0.287 ± 0.064.
Variant M55S has an abundance fitness of 0.007 ± 0.06.
In the case of A11S, the abundance fitness is reported as -0.007 ± 0.027.
M29C showed an abundance fitness of -0.022 ± 0.039.
In the case of D33A, the abundance fitness is reported as -0.065 ± 0.045.
Variant P34V has an abundance fitness of -0.033 ± 0.038.
N51P showed an abundance fitness of -0.038 ± 0.057.
With E15A the abundance fitness was -0.03 ± 0.036.
For K31W, the abundance fitness was -0.138 ± 0.046.
A12N gave an abundance fitness of 0.052 ± 0.074.
Variant N13F has an abundance fitness of -0.092 ± 0.042.
Variant S50G has an abundance fitness of -0.109 ± 0.038.
In the case of N14C, the abundance fitness is reported as -0.027 ± 0.061.
With N42I the abundance fitness was -0.196 ± 0.062.
In the case of E17V, the abundance fitness is reported as -0.145 ± 0.04.
Y8Q showed an abundance fitness of -0.084 ± 0.05.
Variant G23Q has an abundance fitness of -0.181 ± 0.048.
For I5E, the abundance fitness was -0.062 ± 0.052.
In the case of S19H, the abundance fitness is reported as -0.123 ± 0.043.
Work on K22N yielded an abundance fitness of -0.025 ± 0.063.
In the case of T45P, the abundance fitness is reported as -0.083 ± 0.038.
K31E gave an abundance fitness of 0.006 ± 0.051.
E40S showed an abundance fitness of 0.003 ± 0.036.
D33L showed an abundance fitness of -0.077 ± 0.044.
Work on N51T yielded an abundance fitness of -0.034 ± 0.042.
Variant N13H has an abundance fitness of 0.106 ± 0.057.
I41R gave an abundance fitness of -0.028 ± 0.031.
Work on L25Y yielded an abundance fitness of -0.115 ± 0.07.
N30W showed an abundance fitness of -0.16 ± 0.05.
In the case of I5R, the abundance fitness is reported as -0.147 ± 0.04.

Variants of: B2
Test: as above
Conditions: Homo sapiens
Work on P24L yielded an abundance fitness of -0.315 ± 0.076.
For K44N, the abundance fitness was -0.334 ± 0.19.
In the case of L11E, the abundance fitness is reported as 0.142 ± 0.078.
With L11S the abundance fitness was -0.161 ± 0.073.
Work on Q56S yielded an abundance fitness of -0.57 ± 0.28.
L11R showed an abundance fitness of 0.034 ± 0.063.
D8C showed an abundance fitness of 0.054 ± 0.098.
Work on Q28N yielded an abundance fitness of -0.171 ± 0.14.
For K41A, the abundance fitness was -0.056 ± 0.12.
With E31R the abundance fitness was -0.282 ± 0.076.
Work on N49T yielded an abundance fitness of -0.039 ± 0.12.
V13G showed an abundance fitness of -0.415 ± 0.078.
R12A showed an abundance fitness of -0.122 ± 0.069.
With I6C the abundance fitness was -0.4 ± 0.12.
In the case of K35Y, the abundance fitness is reported as -0.357 ± 0.12.
Work on Y17W yielded an abundance fitness of -0.181 ± 0.074.
L14W showed an abundance fitness of -0.721 ± 0.1.
N22K gave an abundance fitness of -0.085 ± 0.11.
Variant V13H has an abundance fitness of -0.199 ± 0.069.
Work on Q56T yielded an abundance fitness of -0.298 ± 0.23.
E27T showed an abundance fitness of -0.011 ± 0.089.
In the case of R12W, the abundance fitness is reported as -0.456 ± 0.072.
V13S gave an abundance fitness of -0.033 ± 0.061.
Y17F gave an abundance fitness of 0.026 ± 0.12.
Variant I29Q has an abundance fitness of -0.225 ± 0.12.
S25H gave an abundance fitness of -0.537 ± 0.23.
E27I gave an abundance fitness of -0.05 ± 0.13.
N21Y gave an abundance fitness of 0.014 ± 0.15.
Work on R1W yielded an abundance fitness of -0.979 ± 0.18.
Work on R12G yielded an abundance fitness of -0.067 ± 0.063.
Work on L11V yielded an abundance fitness of -0.252 ± 0.071.
For R15G, the abundance fitness was -0.256 ± 0.067.
V42Y gave an abundance fitness of -0.18 ± 0.14.
D9R gave an abundance fitness of -0.143 ± 0.063.
For Q40I, the abundance fitness was -0.162 ± 0.15.
Variant G37D has an abundance fitness of -0.103 ± 0.1.
Variant N49Y has an abundance fitness of -0.145 ± 0.19.
Variant D34G has an abundance fitness of -0.011 ± 0.07.
L38V showed an abundance fitness of -0.008 ± 0.08.
With N22D the abundance fitness was -0.189 ± 0.12.
In the case of H45F, the abundance fitness is reported as 0.009 ± 0.14.
P24C gave an abundance fitness of -0.534 ± 0.098.
In the case of P2H, the abundance fitness is reported as 0.012 ± 0.15.
With F18S the abundance fitness was -0.1 ± 0.076.
